US20250230210A1 (PARTNER THERAPEUTICS, published 2025)

Tests used:
[1] = biological target: T1, human serum albumin (human, UniProt P02768 25-609); test: BLI, VHH-Fc on sensor, human albumin in solution, pH 5.5, 30 C, 1:1 model
T1 construct: also called HSA; Human Albumin
Protocol: (§1) To assess binding to albumin, the VHH were cloned onto a human IgG1 Fc and hinge for ease of purification and analysis. […] The VH-Fc constructs were loaded onto AHC sensors prior to exposure to the monomeric targets human, mouse or rhesus albumin in solution for association and then dissociation in buffer solution (Table 5 and FIGS. 5A-C).
(§2) To determine the dissociation constant, the binding reaction and dissociation were performed at the described pH. Data acquisition was performed at 30° C.
(§3) Data (time and response units) was analyzed using the ForteBio Data Analysis Software. The data was fit to a 1:1 binding model to calculate an association (Kon) and dissociation rate (Koff), and KD was calculated using the ratio kd/ka.

[2] = biological target: T1, human serum albumin; test: BLI, VHH-Fc on sensor, human albumin in solution, pH 7.0, 30 C, 1:1 model
Protocol: as §1, §2, §3

[3] = biological target: T1, human serum albumin; test: BLI, Octet 384, VHH-Fc on AHC sensor, albumin in solution; VHH-Fc on AHC sensor, monomeric human albumin in solution; pH of Table 5 not stated
[4] = biological target: T1, human serum albumin; test: BLI, VHH-Fc on sensor, human albumin in solution, pH 6.5, 30 C, 1:1 model
Protocol: as §1, §2, §3

[5] = biological target: T2, Rhesus albumin (rhesus monkey, UniProt Q28522 17-600); test: BLI, Octet 384, VHH-Fc on AHC sensor, albumin in solution
T2 construct: also called rhesus monkey albumin
Protocol: (§4) To assess binding, the VHH were cloned onto a human IgG1 Fc and hinge for ease of purification and analysis. […] The VHH-Fc constructs were loaded onto AHC sensors prior to exposure to the monomeric targets, human, mouse or rhesus albumin in solution to determine association and dissociation. In the case of the pH assessment, the binding reaction and dissociation buffer were at the described pH. Data acquisition was performed at 30° C.
as §1

[6] = biological target: T1, human serum albumin; test: as above
Protocol: as §4, §1

[7] = biological target: T3, Mouse Albumin (mouse, UniProt P07724 25-608); test: as above
T3 construct: also called murine albumin
Protocol: as §4, §1

[8] = biological target: T1, human serum albumin; test: BLI, VHH-Fc on sensor, human albumin in solution, pH 6.0, 30 C, 1:1 model
Protocol: as §1, §2, §3

B1: VHH-Fc construct (anti-albumin VHH cloned onto a human IgG1 Fc and hinge) (Fc fusion)
chain: EVQLLESGGGLVQPGGSLRLSCAASGETLDYYAIGWFRQAPGKEREGVSCIASSGGSTNYADSVKGRFTISRDNSKNTVYLQMNSLKPEDTAVYYCAAAVLECRTVVRGYDYWGQGTQVTVSS
notes: also called VH-Fc constructs; not shown: human IgG1 hinge and Fc
- Kd [1]: 12.3 nM
- Kd [2]: 6.63 nM
- Kd [3]: 159 nM
- Kd [4]: 8.2 nM
- Kd [5]: 66.2 nM
- Response [5]: 0.34
- Response [6]: 0.178
- Kd [7]: 10.4 nM
- Response [7]: 0.507
- Kd [8]: 3.81 nM
